From FireProtDB (doi:10.1021/bi951726o) come the findings set out here.

The conditions of the data set: Escherichia coli (strain K12), pH 7.8, Urea, NMR, Potassium phosphate 58 mM, reversible: yes, whole UniProt chain shown.

B1: Tryptophan synthase alpha chain wild type, P0A877 (protein)
chain: MERYESLFAQLKERKEGAFVPFVTLGDPGIEQSLKIIDTLIEAGADALELGIPFSDPLADGPTIQNATLRAFAAGVTPAQCFEMLALIRQKHPTIPIGLLMYANLVFNKGIDEFYAQCEKVGVDSVLVADVPVEESAPFRQAALRHNVAPIFICPPNADDDLLRQIASYGRGYTYLLSRAGVTGAENRAALPLNHLVAKLKEYNAAPPLQGFGISAPDQVKAAIDAGAAGAISGSAIVKIIEQHINEPEKMLAALKVFVQPMKAATRS
Consider B1, for which the “denaturant midpoint (higher = more stable)” value runs as follows: (5 °C) 4.8 M; (10 °C) 4.6 M; (15 °C) 4.7 M; (20 °C) 5.4 M; (25 °C) 5.9 M. Besides, the unfolding free energy runs as follows: (5 °C) 4.8 kcal/mol; (10 °C) 5.5 kcal/mol; (15 °C) 6.1 kcal/mol; (20 °C) 7.5 kcal/mol; (25 °C) 8.2 kcal/mol.
